Laboratory results published in patent publication US6713276B2, “Modulation of Aβ levels by β-secretase BACE2” (Scios, Inc., priority 2000, dated 2004).

Assays:
[1] = tested on: APP751sw processing in SK-N-MC cells; assay: co-transfection with APP751sw in SK-N-MC neuroblastoma cells, ELISA of conditioned medium; type: cell-based, human; conditions: co-transfected with APP751sw
Protocol: Expression vectors containing BACE and BACE2 cDNAs were transfected into HEK293T cells in the presence of APP751sw or CT100 (Shoji et al., Science 258: 126-129 [1992]; Lichtenthaler et al., Proc. Natl. Acad. Sci. USA 96: 3053-3058 [1999]). Transfections were performed in 24 well plates using Lipofectamine Plus (Gibco/BRL, Bethesda, Md.) and DNA concentrations were kept constant by including non-specific DNA. Expression plasmids were tested for BACE and BACE2 expression by Western blotting. Cell culture supernatants were collected 48 hours and 72 hours post-transfection, and assayed for α-NTF, β-NTF and Aβ formation. β-NTF measurement was performed as described below. α-NTF was captured like β-NTF but was detected with biotinylated 2H3 (Johnson-Wood et al., Proc. Nati. Acad. Sci. USA 94: 1550-1555 [1997]). Aβ levels were determined by an ELISA using monoclonal antibodies 266 for capture and biotinylated 3D6 for detection (see Johnson-Wood et al., [1997] ibid for antibody epitope description). Aβ42, in contrast, was captured using 21F 12 and detected with biotinylated 3D6. […]
We further assessed the modulatory effect of BACE2 on Aβ formation using a human neuroblastoma cell line, SK-N-MC.

[2] = tested on: APP751wt; assay: cell-free β-secretase assay, β-NTF ELISA, APP751wt substrate; type: biochemical, human; conditions: membrane extracts of transfected HEK293 cells, incubation up to 8 hours
Protocol: (§1) The β-secretase assay consists of two different parts, an incubation or reaction phase to generate β-NTF and an ELISA part to capture and measure the β-NTF generated by β-secretase. The β-secretase ELISA was performed as follows. Each well of a 96 well plate containing a flat bottom (high protein binding, Corning, N.Y.) was coated with 100 μl of the monoclonal capture antibody 8E5 (at ˜8-10 μg/ml) (Johnson-Wood et al. Proc. Natl. Acad. Sci. USA 94: 1550-1555 [1997]). The plate was then covered with parafilm and incubated overnight at 4° C. or alternatively for 2 hours at 37° C. […]
(§2) One hundred μl of a 1:5000 dilution of a goat anti rabbit IgG-HRP in Antibody-Conjugate Buffer was then added to each well, and the plate incubated at room temperature for one hour. […] After sufficient blue color had developed, the reactions were stopped by adding 100 μl of 5N H2SO4 to each well, and the amount of βNTF was determined by reading the plate at 450 nm in a Softmax spectrophotometer.
(§3) Equal amounts of membrane extracts from either mock, BACE or BACE2 transfected HEK293 cells were incubated with partially purified full length APP751 sw or APP751wt for the indicated times. The formation of β-NTF was then determined using the respective β-NTF specific ELISA as described in General Methodology.

[3] = tested on: APP751sw; assay: cell-free β-secretase assay, β-NTF ELISA, APP751sw substrate; type: biochemical, human; conditions: membrane extracts of transfected HEK293 cells, pH 4.5, 37° C.
Protocol: as §1, §2, §3

Row | Molecule | Aβ in conditioned medium [1] | β-NTF in conditioned medium [1] | β-NTF formation (β-secretase cleavage in vitro) [2] | β-NTF formation (β-secretase cleavage in vitro) [3]
1 | BACE2: human aspartyl protease, close homolog of BACE (SEQ ID NO: 2), expressed from pcDNA3.1(−)/BACE2 in transfected cells (protein) MGALARALLLPLLAQWLLRAAPELAPAPFTLPLRVAAATNRVVAPTPGPGTPAERHADGLALALEPALASPAGAANFLAMVDNLQGDSGRGYYLEMLIGTPPQKLQILVDTGSSNFAVAGTPHSYIDTYFDTERSSTYRSKGFDVTVKYTQGSWTGFVGEDLVTIPKGFNTSFLVNIATIFESENFFLPGIKWNGILGLAYATLAKPSSSLETFFDSLVTQANIPNVFSMQMCGAGLPVAGSGTNGGSLVLGGIEPSLYKGDIWYTPIKEEWYYQIEILKLEIGGQSLNLDCREYNADKAIVDSGTTLLRLPQKVFDAVVEAVARASLIPEFSDGFWTGSQLACWTNSETPWSYFPKISIYLRDENSSRSFRITILPQLYIQPMMGAGLNYECYRFGISPSTNALVIGATVMEGFYVIFDRAQKRVGFAASPCAEIAGAAVSEISGPFSTEDVASNCVPAQSLSEPILWIVSYALMSVCGAILLVLIVLLLLPFRCQRRPRDPEVVNDESSLVRHRWK | significant reduction of Aβ | showed β-secretase activity in vivo | cleaved APP751wt to a similar extent as BACE | time-dependent increase in β-NTF formation
2 | BACE2 D110A: single D110A BACE2 mutant of a critical aspartate residue, made by site-directed mutagenesis (protein) ALEPALASPAGAANFLAMVDNLQGDSGRGYYLEMLIGTPPQKLQILVATGSSNFAVAGTPHSYIDTYFDTERSSTYRSKGFDVTVKYTQGSWTGFVGEDLVTIPKGFNTSFLVNIATIFESENFFLPGIKWNGILGLAYATLAKPSSSLETFFDSLVTQANIPNVFSMQMCGAGLPVAGSGTNGGSLVLGGIEPSLYKGDIWYTPIKEEWYYQIEILKLEIGGQSLNLDCREYNADKAIVDSGTTLLRLPQKVFDAVVEAVARASLIPEFSDGFWTGSQLACWTNSETPWSYFPKISIYLRDENSSRSFRITILPQLYIQPMMGAGLNYECYRFGISPSTNALVIGATVMEGFYVIFDRAQKRVGFAASPCAEIAGAAVSEISGPFSTEDVASNCVPAQSLSEPILWIVSYALMSVCGAILLVLIVLLLLPFRCQRRPRDPEVVNDESSLVRHRWK | – | – | – | lost their ability to cleave at the β-secretase site in vitro
